Laboratory results reported in PMC1885673 (Nucleic Acids Research, 2007).

T1: S. pombe Hop2-Mnd1 complex, purified, His-tagged (S. pombe, UniProt Q9HGK2;Q09739)
T1 sequence 1: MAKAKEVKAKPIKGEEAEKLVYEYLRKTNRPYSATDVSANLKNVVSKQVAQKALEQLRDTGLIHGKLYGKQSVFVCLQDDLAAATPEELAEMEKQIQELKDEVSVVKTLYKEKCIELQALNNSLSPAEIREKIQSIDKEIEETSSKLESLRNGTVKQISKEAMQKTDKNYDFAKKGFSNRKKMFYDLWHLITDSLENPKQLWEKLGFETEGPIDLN
T1 sequence 2: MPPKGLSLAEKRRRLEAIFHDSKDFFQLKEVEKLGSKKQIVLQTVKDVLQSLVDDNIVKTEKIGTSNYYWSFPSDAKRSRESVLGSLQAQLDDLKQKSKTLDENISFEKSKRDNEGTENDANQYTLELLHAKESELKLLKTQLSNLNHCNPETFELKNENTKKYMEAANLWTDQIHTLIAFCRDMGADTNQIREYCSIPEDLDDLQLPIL

T2: S. pombe Hop2 (Meu13), His-tagged, from pET28b, co-expressed and co-purified with Mnd1 (S. pombe, UniProt Q9HGK2 1-216)
T2 sequence: T1 sequence 1

B1: S. pombe Dmc1, purified (natural protein)
chain: MEEFAEGNDDEQMIFSDIEDLTAHGIGMTDIIKLKQAGVCTVQGVHMSTKRFLLKIKGFSEAKVDKLKEAASKMCPANFSTAMEISQNRKKVWSISTGSEALNGILGGGIQSMSITEVFGEFRCGKTQMSHTLCVTAQLPRDMGGAEGKVAFIDTEGTFRPDRIKAIAERFGVDADQAMENIIVSRAYNSEQQMEYITKLGTIFAEDGQYRLLIVDSIMALFRVDYSGRGELSERQQKLNIMLARLNHISEEFNVAVFVTNQVQADPGAAMMFASNDRKPVGGHVMAHASATRLLLRKGRGEERVAKLNDSPDMPEAECSYVITPGGIADVS
B2: S. pombe Rad51, purified (natural protein)
chain: MADTEVEMQVSAADTNNNENGQAQSNYEYDVNVQDEEDEAAAGPMPLQMLEGNGITASDIKKIHEAGYYTVESIAYTPKRQLLLIKGISEAKADKLLGEASKLVPMGFTTATEYHIRRSELITITTGSKQLDTLLQGGVETGSITELFGEFRTGKSQICHTLAVTCQLPIDMGGGEGKCLYIDTEGTFRPVRLLAVADRYGLNGEEVLDNVAYARAYNADHQLELLQQAANMMSESRFSLLVVDSCTALYRTDFSGRGELSARQMHLARFMRTLQRLADEFGIAVVITNQVVAQVDGISFNPDPKKPIGGNILAHSSTTRLSLRKGRGEQRICKIYDSPCLPESEAIFAINSDGVGDPKEIIAPV
B3: S. pombe Mnd1 (Mcp7), His-tagged, from pET16b, co-expressed and co-purified with Hop2 (natural protein)
chain: T1 sequence 2

Tests used:
[1] = molecular target: T1, S. pombe Hop2-Mnd1 complex, purified, …; assay: pull-down
[2] = molecular target: T2, S. pombe Hop2 (Meu13), His-tagged, from …; assay: co-elution in ion-exchange chromatography

Binder	binding result [1]	binding result [2]
B1	binds	–
B2	binds	–
B3	–	binds
